The record followed here is patent publication US20150299276A1.

A value given as a limit tells only on which side of the number the result lay.

Assay [1] concerns the target rat α6/α3β2β3 nAChR (rat), P12390. Put plainly: cell-based or functional assay.
The target of assay [2] is rat α6/α3β4 nAChR (rat), P12392. Put plainly: cell-based or functional assay.

B1: α-conotoxin TxIB/Txd4(G) (peptide)
peptide: GCCSDPPCRNKHPDLCG
modifications: not checked
B1: in assay [1], the IC50 (half-blocking dose) of ACh-gated current, Xenopus oocytes came to 247 nM and the Ratio (IC50 of TxIB(G) / IC50 of TxIB) was determined as 8.7. The same molecule displayed an IC50 (half-blocking dose) of ACh-gated current, Xenopus oocytes in assay [2] greater than 10000 nM.

B2: α-conotoxin TxIB/Txd4 (peptide)
peptide: GCCSDPPCRNKHPDLC
modifications: not checked
For the molecule B2, in assay [1], the IC50 (half-blocking dose) of ACh-gated current, Xenopus oocytes came out at 28.4 nM and the Ratio (IC50 of TxIB(G) / IC50 of TxIB) was 1. The molecule also displayed an IC50 (half-blocking dose) of ACh-gated current, Xenopus oocytes in assay [2] greater than 10000 nM.
